# Source: publication PMC10748074
# Target: Keap1 labeled with Cy3 (UniProt Q14145)
# Experiment: MST
# Chain of UniProt Q14145 (Q14145 whole entry): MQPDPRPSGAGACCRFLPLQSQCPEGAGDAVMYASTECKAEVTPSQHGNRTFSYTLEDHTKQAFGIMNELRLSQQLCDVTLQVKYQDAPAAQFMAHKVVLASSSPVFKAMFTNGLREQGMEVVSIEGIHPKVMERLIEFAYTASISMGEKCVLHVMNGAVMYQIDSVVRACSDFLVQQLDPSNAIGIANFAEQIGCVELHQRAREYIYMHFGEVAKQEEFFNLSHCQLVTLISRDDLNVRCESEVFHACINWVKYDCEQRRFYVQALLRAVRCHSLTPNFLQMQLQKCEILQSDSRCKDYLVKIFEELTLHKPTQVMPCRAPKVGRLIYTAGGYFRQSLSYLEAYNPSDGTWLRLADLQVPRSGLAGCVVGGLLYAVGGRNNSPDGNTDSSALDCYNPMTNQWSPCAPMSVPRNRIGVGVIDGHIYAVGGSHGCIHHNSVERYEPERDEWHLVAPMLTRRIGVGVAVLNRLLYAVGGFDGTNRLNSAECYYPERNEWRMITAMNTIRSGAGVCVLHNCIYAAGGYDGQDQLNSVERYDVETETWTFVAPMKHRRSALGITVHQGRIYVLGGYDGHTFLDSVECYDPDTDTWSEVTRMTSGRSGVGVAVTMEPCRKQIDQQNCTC
row,Substance,Kd [µM]
1,"MNT0, control modular nanotransporter lacking the antiKeap1 monobody fragment",0.093
2,"free translocation domain of diphtheria toxin, DTox (from UniProt P00588 33-567) (domain or fragment)",> 1
